Experimental data: article PMC5014551, “Role of Nfu1 and Bol3 in iron-sulfur cluster transfer to mitochondrial clients” (eLife, 2016)

Target: T1, recombinant human BOLA1, fluorescently labelled (human, UniProt Q9Y3E2 1-137, NT-647 dye (Monolith NT Protein Labeling Kit RED))
T1 construct: BOLA1, human mitochondrial BolA protein
T1 sequence (looked up): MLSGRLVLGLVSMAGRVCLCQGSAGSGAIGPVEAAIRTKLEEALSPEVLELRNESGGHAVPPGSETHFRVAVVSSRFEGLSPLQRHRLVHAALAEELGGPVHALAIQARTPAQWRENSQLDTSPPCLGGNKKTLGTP
Assay: MST; 200 nM NT-647 labelled protein titrated with unlabelled protein from 200 µM to 6.1 nM; 50 mM KPi pH 7.4, 150 mM NaCl, 5% glycerol, 0.05 mg/mL BSA, 0.05% Tween20; 21°C; anaerobic
Details: both partners purified

fold affinity against BOLA3: 50 fold
B1: human holo-GLRX5 dimer containing the bridging [2Fe-2S] cluster (natural protein, UniProt Q86SX6 32-157, looked up)
chain: AGSGAGGGGSAEQLDALVKKDKVVVFLKGTPEQPQCGFSNAVVQILRLHGVRDYAAYNVLDDPELRQGIKDYSNWPTIPQVYLNGEFVGGCDILLQMHQNGDLVEELKKLGIHSALLDEKKDQDSK
modifications: bridging [2Fe-2S] cluster between two GLRX5 monomers
notes: GLRX5, human mitochondrial monothiol glutaredoxin, chemically reconstituted; also called chemically reconstituted GLRX5; source: chemically reconstituted with Fe-S cluster in an anaerobic chamber
